Patent US20210380640A1
Like-named read-outs stand apart in the source and are kept apart here. One block for each substance: values may come before it.

What was measured:
[1] = target: SARS-CoV-2 spike protein (SARS-CoV-2) (UniProt P0DTC2)
[2] = target: SARS-CoV-2 spike protein (SARS-CoV-2) (UniProt P0DTC2); remark: listed apart in the source
[3] = target: full-length recombinant MrkA protein with an N-terminal 6xHis-SUMO-tag (MyBiosource, MBS1248970) (Klebsiella pneumoniae) (UniProt P12267); assay: sandwich ELISA 3, PCC immobilised, MrkA 50 nM; reference cy(LLFFF)
[4] = target: full-length recombinant MrkA protein with an N-terminal 6xHis-SUMO-tag (MyBiosource, MBS1248970) (Klebsiella pneumoniae) (UniProt P12267); assay: sandwich ELISA 2, PCC immobilised, MrkA 25 nM; reference cy(LLFFF)
[5] = target: full-length recombinant MrkA protein with an N-terminal 6xHis-SUMO-tag (MyBiosource, MBS1248970) (Klebsiella pneumoniae) (UniProt P12267); assay: sandwich ELISA 6, PCC immobilised, MrkA 25 nM; reference cy(LLFFF)
[6] = target: full-length recombinant MrkA protein with an N-terminal 6xHis-SUMO-tag (MyBiosource, MBS1248970) (Klebsiella pneumoniae) (UniProt P12267); assay: sandwich ELISA 5, PCC immobilised, MrkA 25 nM; reference cy(LLFFF)
[7] = target: full-length recombinant MrkA protein with an N-terminal 6xHis-SUMO-tag (MyBiosource, MBS1248970) (Klebsiella pneumoniae) (UniProt P12267); assay: sandwich ELISA, biotinylated PCC immobilised, His-SUMO-MrkA titrated (FIG. 3A)
[8] = target: full-length recombinant MrkA protein with an N-terminal 6xHis-SUMO-tag (MyBiosource, MBS1248970) (Klebsiella pneumoniae) (UniProt P12267); assay: sandwich ELISA 1, PCC immobilised, [MrkA] N/A; the reference itself
[9] = target: full-length recombinant MrkA protein with an N-terminal 6xHis-SUMO-tag (MyBiosource, MBS1248970) (Klebsiella pneumoniae) (UniProt P12267); assay: ELISA, PCC immobilised, full-length recombinant MrkA
[10] = target: full-length recombinant MrkA protein with an N-terminal 6xHis-SUMO-tag (MyBiosource, MBS1248970) (Klebsiella pneumoniae) (UniProt P12267); assay: sandwich ELISA 6, PCC immobilised, MrkA 25 nM; the reference itself
[11] = target: full-length recombinant MrkA protein with an N-terminal 6xHis-SUMO-tag (MyBiosource, MBS1248970) (Klebsiella pneumoniae) (UniProt P12267); assay: sandwich ELISA 4, PCC immobilised, MrkA 100 nM; the reference itself
[12] = target: full-length recombinant MrkA protein with an N-terminal 6xHis-SUMO-tag (MyBiosource, MBS1248970) (Klebsiella pneumoniae) (UniProt P12267); assay: sandwich ELISA 2, PCC immobilised, MrkA 25 nM; the reference itself
[13] = target: full-length recombinant MrkA protein with an N-terminal 6xHis-SUMO-tag (MyBiosource, MBS1248970) (Klebsiella pneumoniae) (UniProt P12267); assay: sandwich ELISA 3, PCC immobilised, MrkA 50 nM; the reference itself
[14] = target: full-length recombinant MrkA protein with an N-terminal 6xHis-SUMO-tag (MyBiosource, MBS1248970) (Klebsiella pneumoniae) (UniProt P12267); assay: sandwich ELISA 5, PCC immobilised, MrkA 25 nM; the reference itself
[15] = target: full-length recombinant MrkA protein with an N-terminal 6xHis-SUMO-tag (MyBiosource, MBS1248970) (Klebsiella pneumoniae) (UniProt P12267); assay: sandwich ELISA 4, PCC immobilised, MrkA 100 nM; reference cy(LLFFF)

Substance: avtr (peptide)
EC50 [2]: 3.4 nM

Substance: cy(AAFFF) (peptide)
Relative affinity (ratio of ELISA signal to cy(LLFFF)) [3]: 0.15

Substance: cy(ALFFF) (peptide)
Relative affinity (ratio of ELISA signal to cy(LLFFF)) [4]: 0.53

Substance: cy(DLFFF) (peptide)
Relative affinity (ratio of ELISA signal to cy(LLFFF)) [5]: 0.21

Substance: cy(HLFFF) (peptide)
Relative affinity (ratio of ELISA signal to cy(LLFFF)) [5]: 0.81

Substance: cy(LAFFF) (peptide)
Relative affinity (ratio of ELISA signal to cy(LLFFF)) [4]: 0.26

Substance: cy(LLAFF) (peptide)
Relative affinity (ratio of ELISA signal to cy(LLFFF)) [4]: 0.59

Substance: cy(LLFAF) (peptide)
Relative affinity (ratio of ELISA signal to cy(LLFFF)) [4]: 0.1

Substance: cy(LLFFA) (peptide)
Relative affinity (ratio of ELISA signal to cy(LLFFF)) [4]: 0.04

Substance: cy(LLFFF)+R3 (peptide)
Relative affinity (ratio of ELISA signal to cy(LLFFF)) [6]: 0.9

Substance: cy(LLFFF)+R6 (peptide)
Relative affinity (ratio of ELISA signal to cy(LLFFF)) [6]: 1.22

Substance: cy(LLFFF)+R9 (peptide)
Relative affinity (ratio of ELISA signal to cy(LLFFF)) [6]: 0.58

Substance: cy(LLFFF), biotinylated (peptide)
EC50 [7]: 50 nM
Relative affinity (ratio of ELISA signal to cy(LLFFF)) [8]: 1
EC50 [9]: 230 nM
Relative affinity (ratio of ELISA signal to cy(LLFFF)) [10]: 1
Relative affinity (ratio of ELISA signal to cy(LLFFF)) [11]: 1
Relative affinity (ratio of ELISA signal to cy(LLFFF)) [12]: 1
Relative affinity (ratio of ELISA signal to cy(LLFFF)) [13]: 1
Relative affinity (ratio of ELISA signal to cy(LLFFF)) [14]: 1

Substance: cy(TTFFF) (peptide)
Relative affinity (ratio of ELISA signal to cy(LLFFF)) [15]: 0.04

Substance: dyGvd (peptide)
EC50 [2]: 2.9 nM

Substance: dynGp (peptide)
EC50 [2]: 2.9 nM

Substance: eprnn (peptide)
EC50 [2]: 11 nM

Substance: fdtta (peptide)
EC50 [2]: 3.2 nM

Substance: sdyre (peptide)
EC50 [1]: 4.2 nM

Substance: senfd (peptide)
EC50 [2]: 3.8 nM

Substance: tGarn (peptide)
EC50 [1]: 3.1 nM

Substance: tsthG (peptide)
EC50 [2]: 3.6 nM

Substance: ydrsd (peptide)
EC50 [1]: 4.2 nM

Further lines, results first:

EC50 [1]: 4.2 nM
Substance: G1Gld (peptide)

EC50 [1]: 3.4 nM
Substance: GGarn (peptide)

EC50 [2]: 16.4 nM
Substance: aakrG (peptide)

EC50 [1]: 4.2 nM
Substance: andkd (peptide)

EC50 [1]: 4.1 nM
Substance: dpvtd (peptide)

EC50 [2]: 4.3 nM
Substance: edlvk (peptide)

EC50 [2]: 4.4 nM
Substance: nkvyG (peptide)

EC50 [1]: 3.8 nM
Substance: nnpdh (peptide)

EC50 [2]: 3.2 nM
Substance: skdfd (peptide)

EC50 [2]: 4.6 nM
Substance: skevd (peptide)

EC50 [2]: 4 nM
Substance: ykdld (peptide)
